Substrate in the series: CC(=O)SCC[N+](C)(C)C
Description: Steady state kinetics of substrate hydrolysis, HuBChE. It is filed as biochemical, human. The following applies: other: HuBChE, equation 1, 50 mM sodium phosphate pH 8.0, 22 °C.

Usually Km stands for the concentration of substrate that gives half-maximal velocity.

B1: HuBChE (Homo sapiens) (protein)
chain: EDDIIIATKNGKVRGMNLTVFGGTVTAFLGIPYAQPPLGRLRFKKPQSLTKWSDIWNATKYANSCCQNIDQSFPGFHGSEMWNPNTDLSEDCLYLNVWIPAPKPKNATVLIWIYGGGFQTGTSSLHVYDGKFLARVERVIVVSMNYRVGALGFLALPGNPEAPGNMGLFDQQLALQWVQKNIAAFGGNPKSVTLFGESAGAASVSLHLLSPGSHSLFTRAILQSGSFNAPWAVTSLYEARNRTLNLAKLTGCSRENETEIIKCLRNKDPQEILLNEAFVVPYGTPLSVNFGPTVDGDFLTDMPDILLELGQFKKTQILVGVNKDEGTAFLVYGAPGFSKDNNSIITRKEFQEGLKIFFPGVSEFGKESILFHYTDWVDDQRPENYREALGDVVGDYNFICPALEFTKKFSEWGNNAFFYYFEHRSSKLPWPEWMGVMHGYEIEFVFGLPLERRDNYTKAEEILSRSIVKRWANFAKYGNPNETQNNSTSWPVFKSTEQKYLTLNTESTRIMTKLRAQQCRFWTSFFPKVLEMTGNIDEAEWEWKAGFHRWNNYMMDWKNQFNDYTSKKESCVGL
Turning to B1, the Km was found to be 31 ± 4 µM, the kcat is recorded as 23±2 x10^3 min^−1 and the kcat/Km is reported as 697±14 ×10^3 min^−1 mM^−1.

The values above are taken from article PMC6086383.
